Measurements reported in the supplement of paper PMC7877785.
± gives the uncertainty stated by the source.

Assay: self-splicing fitness, log relative to wild type (ln ratio); higher = more splicing; Tetrahymena group I intron in knt gene, E. coli kanamycin selection, DiMSum; sequences stand for … in CUCUCU…GGAGGGAAAAGUUAUCAGGCAUGCACCUGGUAGCUAGUCUUUAAACCAAUAGAUUGCAUCGGUUUAAAAGGCAAGACCGUCAAAUUGCGGGAAAGGGGUCAACAGCCGUUCAGUACCAAGUCUCAGGGGAAACUUUGAGAUGGCCUUGCAAAGGGUAUGGUAAUAAGCUGACGGACAUGGUCCUAACCACGCAGCCAAGUCCUAAGUCAACAGAUCUUCUGUUGAUAUGGAUGCAGUUCACAGACUAAAUGUCGGUCGGGGAAGAUGUAUUCUUCUCAUAAGAUAUAGUCGGACCUCUCCUUAAUGGGAGCUAGCGGAUGAAGUGAUGCAACACUGGAGCCGCUGGGAACUAAUUUGUAUGCGAAAGUAUAUUGAUUAGUUUUGGAGUACUCGUGGUCG
Method in brief: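 Colonies from six replicate transformations of E. coli BL21(DE3) were pooled and amplicon-sequenced on an Illumina HiSeq 2500. The library placed an intron with all eight P1ex-region nucleotides randomised inside the knt kanamycin-resistance gene on pET-22b(+), and cells grew overnight at 37°C or 30°C on LB agar with or without 25 μg/mL kanamycin (plus 100 μg/mL carbenicillin, 50 μM IPTG, 0.2% rhamnose). Fitness is the DiMSum error-weighted combination of wild-type-normalised replicate fold changes, kanamycin versus none.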

| Sequence | self-splicing fitness (ln) (30 °C) | self-splicing fitness (ln) (37 °C) |
| --- | --- | --- |
| CACUAGCAAUAUUACGACGG | -0.0504 ± 0.083 | -0.117 ± 0.082 |
| CACUAGCAAUAUUACGACUG | -0.3 ± 0.053 | -0.0818 ± 0.071 |
| CACUAGCAAUAUUACGACUU | -2.29 ± 0.15 | -0.517 ± 0.12 |
| CACUAGCAAUAUUACGAGUA | -1.34 ± 0.096 | -0.6 ± 0.076 |
| CACUAGCAAUAUUACGAUAA | -3.35 ± 0.2 | -1.59 ± 0.15 |
| CACUAGCAAUAUUACGCGGA | -3.19 ± 0.25 | -1.85 ± 0.18 |
| CACUAGCAAUAUUACGGAAA | -1.99 ± 0.42 | -1.42 ± 0.5 |
| CACUAGCAAUAUUACGGACU | -2.87 ± 0.18 | -1.13 ± 0.14 |
| CACUAGCAAUAUUACGGAUG | -2.42 ± 0.083 | -1.39 ± 0.079 |
| CACUAGCAAUAUUACGGUCA | -0.522 ± 0.092 | -0.198 ± 0.12 |
| CACUAGCAAUAUUACGUAGC | -3.47 ± 0.19 | -2.94 ± 0.23 |
| CACUAGCAAUAUUACGUCAU | -5.15 ± 0.41 | -2.79 ± 0.23 |
| CACUAGCAAUAUUACGUCCA | -2.87 ± 0.22 | -1.31 ± 0.16 |
| CACUAGCAAUAUUACGUCGU | -3.39 ± 0.11 | -1.76 ± 0.094 |
| CACUAGCAAUAUUACGUCUU | -3.77 ± 0.3 | -2.75 ± 0.26 |
| CACUAGCAAUAUUACGUUGA | -3.56 ± 0.2 | -2.24 ± 0.16 |
| CAGAAGCAAUAUUACGAAAA | -4.31 ± 0.46 | -2.65 ± 0.21 |
| CAGAAGCAAUAUUACGAAAG | -1.29 ± 0.11 | -0.392 ± 0.12 |
| CAGAAGCAAUAUUACGAACU | -2.12 ± 0.13 | -1.72 ± 0.17 |
| CAGAAGCAAUAUUACGACAG | -0.805 ± 0.15 | -0.248 ± 0.23 |
| CAGAAGCAAUAUUACGAGUA | -3.2 ± 0.29 | -1.66 ± 0.22 |
| CAGAAGCAAUAUUACGAUCC | -2.81 ± 0.16 | -1.93 ± 0.32 |
| CAGAAGCAAUAUUACGCAAC |  | -2.39 ± 0.33 |
| CAGAAGCAAUAUUACGCAAU | -4.46 ± 0.42 | -2.79 ± 0.24 |
| CAGAAGCAAUAUUACGCGCG | -0.373 ± 0.17 | 0.0448 ± 0.29 |

| Sequence | self-splicing fitness (ln) (30 °C) | self-splicing fitness (ln) (37 °C) |
| --- | --- | --- |
| CAGAAGCAAUAUUACGCGUU | -3.09 ± 0.17 | -3.61 ± 0.29 |
| CAGAAGCAAUAUUACGGAGU | -3.56 ± 0.28 | -3.14 ± 0.4 |
| CAGAAGCAAUAUUACGGAUC | -1.26 ± 0.11 | -2.62 ± 0.17 |
| CAGAAGCAAUAUUACGGGUG | -0.824 ± 0.064 | -0.429 ± 0.08 |
| CAGAAGCAAUAUUACGGUCG | -0.112 ± 0.075 | 0.395 ± 0.11 |
| CAGAAGCAAUAUUACGUAAA | -4.01 ± 0.31 | -1.73 ± 0.16 |
| CAGAAGCAAUAUUACGUAAC | -3.85 ± 0.27 | -2.26 ± 0.32 |
| CAGAAGCAAUAUUACGUCCG | 0.0183 ± 0.11 | -0.0354 ± 0.13 |
| CAGAAGCAAUAUUACGUCCU | -1.94 ± 0.18 | -0.858 ± 0.16 |
| CAGAAGCAAUAUUACGUGAC | -3 ± 0.22 | -2.18 ± 0.21 |
| CAGAAGCAAUAUUACGUGAU | -2.97 ± 0.14 | -1.26 ± 0.11 |
| CAGAAGCAAUAUUACGUGGC | -3.7 ± 0.16 | -2.15 ± 0.15 |
| CAGAAGCAAUAUUACGUUCU | -2.75 ± 0.11 | -1.88 ± 0.1 |
| CAGAAGCAAUAUUACGUUUC | -3.38 ± 0.29 | -2.12 ± 0.23 |
| CAGCAGCAAUAUUACGAAGU | -2.46 ± 0.14 | -2.03 ± 0.24 |
| CAGCAGCAAUAUUACGACAC | -2.83 ± 0.23 | -2.45 ± 0.26 |
| CAGCAGCAAUAUUACGACGG | -0.183 ± 0.064 | 0.472 ± 0.1 |
| CAGCAGCAAUAUUACGACUC | -0.922 ± 0.091 | -0.00599 ± 0.14 |
| CAGCAGCAAUAUUACGAGUG | -1.54 ± 0.056 | -0.155 ± 0.074 |
| CAGCAGCAAUAUUACGAUGC | -4.05 ± 0.28 | -2.89 ± 0.34 |
| CAGCAGCAAUAUUACGAUGG | -0.264 ± 0.07 | 0.177 ± 0.092 |
| CAGCAGCAAUAUUACGCAGG | -2.56 ± 0.12 | -0.864 ± 0.11 |
| CAGCAGCAAUAUUACGCCUA | -0.345 ± 0.076 | 0.522 ± 0.094 |
| CAGCAGCAAUAUUACGCUGC | -3.06 ± 0.22 | -2.36 ± 0.2 |
| CAGCAGCAAUAUUACGGAUU | -3 ± 0.14 | -1.64 ± 0.13 |

| Sequence | self-splicing fitness (ln) (30 °C) | self-splicing fitness (ln) (37 °C) |
| --- | --- | --- |
| CAGCAGCAAUAUUACGGCAG | -0.983 ± 0.079 | -0.261 ± 0.11 |
| CAGCAGCAAUAUUACGGCCG | -0.67 ± 0.08 | -0.622 ± 0.12 |
| CAGCAGCAAUAUUACGGCGU | -1.61 ± 0.07 | -0.859 ± 0.08 |
| CAGCAGCAAUAUUACGGCUA | -0.235 ± 0.088 | 0.311 ± 0.13 |
| CAGCAGCAAUAUUACGGCUC | -0.127 ± 0.081 | -0.486 ± 0.099 |
| CAGCAGCAAUAUUACGGGUA | -3.24 ± 0.19 | -1.73 ± 0.13 |
| CAGCAGCAAUAUUACGGUAU | -3.51 ± 0.15 | -2.62 ± 0.13 |
| CAGCAGCAAUAUUACGGUUG | -3.04 ± 0.11 | -2.62 ± 0.23 |
| CAGCAGCAAUAUUACGUAAA | -3.26 ± 0.14 | -1.95 ± 0.15 |
| CAGCAGCAAUAUUACGUAUA | -2.42 ± 0.18 | -2.81 ± 0.29 |
| CAGCAGCAAUAUUACGUGGU | -3.99 ± 0.19 | -2.93 ± 0.18 |
| CAGCAGCAAUAUUACGUUCG | -0.171 ± 0.056 | 0.0532 ± 0.076 |
| CAGGAGCAAUAUUACGACCU | -1.36 ± 0.13 | -0.563 ± 0.17 |
| CAGGAGCAAUAUUACGAGAA |  | -0.522 ± 0.22 |
| CAGGAGCAAUAUUACGAUAG | -1.19 ± 0.12 | -0.223 ± 0.13 |
| CAGGAGCAAUAUUACGAUCG | -0.865 ± 0.08 | 0.258 ± 0.1 |
| CAGGAGCAAUAUUACGAUGG | -0.317 ± 0.091 | 0.171 ± 0.13 |
| CAGGAGCAAUAUUACGAUUU | -3.81 ± 0.28 | -0.961 ± 0.13 |
| CAGGAGCAAUAUUACGCACA | -2.48 ± 0.24 | -1.88 ± 0.23 |
| CAGGAGCAAUAUUACGCAUG | -3.78 ± 0.28 | -1.89 ± 0.2 |
| CAGGAGCAAUAUUACGCCAU | -2.73 ± 0.33 | -1.55 ± 0.41 |
| CAGGAGCAAUAUUACGCCGG |  | -2.22 ± 0.24 |
| CAGGAGCAAUAUUACGCGGG | -0.771 ± 0.15 | -1.84 ± 0.14 |
| CAGGAGCAAUAUUACGGAAG | -2.2 ± 0.13 | -1.67 ± 0.14 |
| CAGGAGCAAUAUUACGGACU | -1.86 ± 0.14 | -1.75 ± 0.3 |

| Sequence | self-splicing fitness (ln) (30 °C) | self-splicing fitness (ln) (37 °C) |
| --- | --- | --- |
| CAGGAGCAAUAUUACGGAUA |  | -0.862 ± 0.41 |
| CAGGAGCAAUAUUACGGCCA |  | 0.122 ± 0.3 |
| CAGGAGCAAUAUUACGGUAA |  | -2.51 ± 0.44 |
| CAGGAGCAAUAUUACGGUAG | -0.725 ± 0.12 | -0.902 ± 0.13 |
| CAGGAGCAAUAUUACGGUGC | -2.68 ± 0.26 | -1.76 ± 0.28 |
| CAGGAGCAAUAUUACGUAAG | -0.111 ± 0.097 | 0.23 ± 0.12 |
| CAGGAGCAAUAUUACGUACA | -2.55 ± 0.49 | -1.73 ± 0.42 |
| CAGGAGCAAUAUUACGUCGU |  | -1.97 ± 0.37 |
| CAGGAGCAAUAUUACGUUAA | -3.28 ± 0.43 | -2.66 ± 0.26 |
| CAGGAGCAAUAUUACGUUAG | -1.45 ± 0.084 | -0.918 ± 0.12 |
| CAGGAGCAAUAUUACGUUCA | -2.89 ± 0.12 | -3.54 ± 0.2 |
| CAGUAGCAAUAUUACGAACU | -1.4 ± 0.22 | -1.05 ± 0.17 |
| CAGUAGCAAUAUUACGACAC | -2.36 ± 0.22 | -1.28 ± 0.23 |
| CAGUAGCAAUAUUACGACAG | -0.798 ± 0.093 | -0.214 ± 0.12 |
| CAGUAGCAAUAUUACGACGG | -0.119 ± 0.085 | 0.411 ± 0.11 |
| CAGUAGCAAUAUUACGAGCG | -0.475 ± 0.087 | 0.263 ± 0.12 |
| CAGUAGCAAUAUUACGAGGG | -2.85 ± 0.13 | -4.18 ± 0.46 |
| CAGUAGCAAUAUUACGAUAC | -3.55 ± 0.36 | -2.51 ± 0.41 |
| CAGUAGCAAUAUUACGAUCG | 0.0663 ± 0.15 | 0.475 ± 0.17 |
| CAGUAGCAAUAUUACGCCAU | -0.742 ± 0.18 | -2.87 ± 0.47 |
| CAGUAGCAAUAUUACGCCUA | -0.488 ± 0.14 | -0.218 ± 0.15 |
| CAGUAGCAAUAUUACGCGAA | -4.22 ± 0.43 | -2.8 ± 0.31 |
